Columns and labels:
Type in all cases: binding
Details in all cases: β-galactosidase ONPG assay, 1 μM ligand or vehicle
[1] = target: T1, VDR (LBD of human Vitamin D receptor) (Homo sapiens, UniProt P11473); assay: Yeast two-hybrid interaction with VDR
T1 construct: VDR (LBD of human Vitamin D receptor); expressed in transfected cells; host or cells: Saccharomyces cerevisiae Y190
T1 sequence (P11473 127-423 limits assumed): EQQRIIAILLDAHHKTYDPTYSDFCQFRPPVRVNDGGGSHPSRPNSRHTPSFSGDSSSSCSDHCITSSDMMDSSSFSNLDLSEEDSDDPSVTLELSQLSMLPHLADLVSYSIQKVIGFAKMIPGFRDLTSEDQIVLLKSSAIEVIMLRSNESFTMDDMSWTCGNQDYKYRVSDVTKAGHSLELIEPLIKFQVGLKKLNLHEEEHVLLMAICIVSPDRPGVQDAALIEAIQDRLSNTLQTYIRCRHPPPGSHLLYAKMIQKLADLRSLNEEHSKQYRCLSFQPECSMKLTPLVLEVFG
T1 sequence (Q9Y6Q9 401-1204 E704Q partner limits assumed): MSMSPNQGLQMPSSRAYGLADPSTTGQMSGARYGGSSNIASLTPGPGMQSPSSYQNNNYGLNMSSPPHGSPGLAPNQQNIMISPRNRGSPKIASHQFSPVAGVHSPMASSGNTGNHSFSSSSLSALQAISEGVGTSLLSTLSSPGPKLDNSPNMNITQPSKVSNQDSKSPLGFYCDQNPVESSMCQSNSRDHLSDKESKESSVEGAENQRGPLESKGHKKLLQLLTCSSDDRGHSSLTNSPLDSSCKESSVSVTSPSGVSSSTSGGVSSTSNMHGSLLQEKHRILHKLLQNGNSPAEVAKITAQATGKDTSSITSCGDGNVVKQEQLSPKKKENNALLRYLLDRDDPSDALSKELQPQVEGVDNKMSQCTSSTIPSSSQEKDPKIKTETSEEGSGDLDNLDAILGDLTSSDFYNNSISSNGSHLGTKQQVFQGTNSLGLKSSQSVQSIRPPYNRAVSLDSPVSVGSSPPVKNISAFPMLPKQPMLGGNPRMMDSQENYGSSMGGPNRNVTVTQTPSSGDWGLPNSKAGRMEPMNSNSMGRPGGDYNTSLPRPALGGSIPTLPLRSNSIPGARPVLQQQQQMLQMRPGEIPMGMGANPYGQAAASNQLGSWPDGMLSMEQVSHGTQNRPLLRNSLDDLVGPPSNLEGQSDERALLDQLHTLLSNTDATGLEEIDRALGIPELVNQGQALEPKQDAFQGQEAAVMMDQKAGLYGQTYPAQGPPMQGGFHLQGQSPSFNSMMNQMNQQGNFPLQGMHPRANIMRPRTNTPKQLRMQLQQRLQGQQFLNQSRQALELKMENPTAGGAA
Method: (§1) The protein—protein interactions between RAC3 and several steroid/nuclear receptors were analyzed by the yeast two-hybrid system. The original two-hybrid clone, RAC3.1 in pGAD10 vector, was retransformed together with yeast expression vectors for Gal4 DBD fusion of selected hormone receptor genes into Y190 cells. The receptors used include RAR (full-length hRARα), RXR (full-length hRXRα), VDR (LBD of human Vitamin D receptor), PPAR (LBD of mPPARα), TR (LBD) of hTRβ), COUP (LBD of COUP-TFI). Three independent colonies from each transformation were selected and analyzed for expression of […] activities by liquid ONPG assay (FIG. 6) after treatment with 1 μM of corresponding ligands (closed bars), or with equal concentration of vehicle alone (open bars). […] The ligands used in these experiments were atRA, VitD3 (1,25-dihydroxyvitamin D3), and Wy (Wy 14,642). […] In the absence of ligand, RAC3 can interact with RAR and PPAR.

PPAR (LBD of mPPARα) = target: T2, PPAR (LBD of mPPARα) (Mus musculus, UniProt P23204); assay: Yeast two-hybrid interaction with PPAR
T2 construct: PPAR (LBD of mPPARα); expressed in transfected cells; host or cells: Saccharomyces cerevisiae Y190
T2 sequence (P23204 239-466 limits assumed): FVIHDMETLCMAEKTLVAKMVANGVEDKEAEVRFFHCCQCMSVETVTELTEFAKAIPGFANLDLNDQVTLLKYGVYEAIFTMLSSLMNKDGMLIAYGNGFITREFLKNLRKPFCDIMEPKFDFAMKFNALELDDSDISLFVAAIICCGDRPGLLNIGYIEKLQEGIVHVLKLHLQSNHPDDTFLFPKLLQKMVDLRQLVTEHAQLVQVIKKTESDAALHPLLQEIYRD
T2 sequence (Q9Y6Q9 401-1204 E704Q partner limits assumed): T1 sequence (Q9Y6Q9 401-1204 E704Q partner limits assumed)
Method: as §1

TR (LBD) of hTRβ = target: T3, TR (LBD) of hTRβ (Homo sapiens, UniProt P10828); assay: Yeast two-hybrid interaction with TR
T3 construct: TR (LBD) of hTRβ); expressed in transfected cells; host or cells: Saccharomyces cerevisiae Y190
T3 sequence (P10828 217-461 limits assumed): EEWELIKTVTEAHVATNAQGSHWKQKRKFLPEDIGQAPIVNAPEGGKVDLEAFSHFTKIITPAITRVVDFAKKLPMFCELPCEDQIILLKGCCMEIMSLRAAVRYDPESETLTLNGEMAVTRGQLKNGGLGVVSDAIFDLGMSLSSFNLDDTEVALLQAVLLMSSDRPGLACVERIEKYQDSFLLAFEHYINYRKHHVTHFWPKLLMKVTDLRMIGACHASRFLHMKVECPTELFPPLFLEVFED
T3 sequence (Q9Y6Q9 401-1204 E704Q partner limits assumed): T1 sequence (Q9Y6Q9 401-1204 E704Q partner limits assumed)
Method: as §1

RAC3: transcriptional coactivator of steroid/nuclear receptors, protein of about 1417 amino acids (SEQ ID NO:2); RAC3.1 is the two-hybrid clone, amino acids 401–1204
ligand-dependent manner: interaction with VDR [1] | interaction with PPAR (PPAR (LBD of mPPARα)) | interaction with TR (TR (LBD) of hTRβ)

Source: patent US7132258B1, “Nucleic acid encoding vitamin D receptor related polypeptide” (University of Massachusetts, priority 1998, dated 2006)
